Results on 30 sequences are retold here after the Immune Epitope Database (IEDB).

The target in one experiment is HLA-B*54:01. Description: IEDB peptide-MHC binding, purified MHC/competitive/radioactivity; filed as Kd, often an IC50 or EC50 that approximates it; ≥ and ≤ were set here for values at or beyond the usual limits of such assays.
The next experiment has as its target HLA-B*53:01. Described as above.
The target of a further experiment is HLA-B*35:01. The experiment is described as above.
Experiment [1] has as its target HLA-B*51:01. The description is as above.
The next experiment deals with HLA-B*07:02. The description is as above.
Experiment [2] concerns the target HLA-A*26:01. Nature of the experiment: IEDB peptide-MHC binding, purified MHC/competitive/fluorescence; filed as Kd, often an IC50 or EC50 that approximates it; ≥ and ≤ were set here for values at or beyond the usual limits of such assays.
Another experiment addresses HLA-A*01:01. Description: IEDB peptide-MHC binding, purified MHC/competitive/radioactivity; filed as Kd, often an IC50 or EC50 that approximates it; ≥ and ≤ were set here for values at or beyond the usual limits of such assays.
The target in experiment [3] is HLA-A*26:01. Described as above.
The target of the next experiment is HLA-A*68:02. The experiment is described as above.
A further experiment concerns the target HLA-A*30:01. The description is as above.
The next experiment addresses HLA-A*30:02. The experiment is described as above.
The target of another experiment is HLA-A*32:01. The description is as above.
The target of another experiment is HLA-A*29:02. The experiment is described as above.
Another experiment addresses HLA-B*08:01. The experiment is described as above.
The target in another experiment is HLA-B*18:01. Description: IEDB peptide-MHC binding, purified MHC/direct/fluorescence; filed as Kd, often an IC50 or EC50 that approximates it; ≥ and ≤ were set here for values at or beyond the usual limits of such assays. Conditions: source organism: Bacillus cereus H3081.97.
Experiment [4] addresses HLA-B*51:01. Nature of the experiment: IEDB peptide-MHC binding, purified MHC/competitive/fluorescence; filed as Kd, often an IC50 or EC50 that approximates it; ≥ and ≤ were set here for values at or beyond the usual limits of such assays. Conditions: source organism: Yersinia pestis Nepal516.
Setting [5] is: source organism: Mammarenavirus brazilense.
Setting [6] is: source organism: Mammarenavirus lassaense.
[7] abbreviates: source organism: Vaccinia virus WR.
The mark [8] stands for this setting: source organism: Dengue virus 4 Philippines/H241/1956.
[9] abbreviates: source organism: SARS coronavirus Tor2.
The mark [10] stands for this setting: source organism: Lymphocytic choriomeningitis virus (strain WE).
Setting [11] is: source organism: Triticum aestivum.
[12] abbreviates: source organism: Dengue virus 2 Jamaica/1409/1983.
Setting [13] is: source organism: Dengue virus 1 Brazil/97-11/1997.

In general, Kd refers to the equilibrium constant for the complex coming apart. For the sequence LPDALLFTL, the Kd in the experiment with HLA-B*54:01 (setting [5]) was 2890 nM; with HLA-B*53:01 (setting [5]), 14.6 nM; in the experiment with HLA-B*35:01 (setting [5]), 13.3 nM; in the experiment with HLA-B*51:01 [1] (setting [5]) it was 3330 nM; with HLA-B*07:02 (setting [5]), 201 nM.
As to MPDCGMSVL, the Kd in the experiment with HLA-B*54:01 (setting [6]) came out at 2720 nM; in the experiment with HLA-B*53:01 (setting [6]), 83.3 nM; in the experiment with HLA-B*35:01 (setting [6]) it was 4.63 nM; in the experiment with HLA-B*51:01 [1] (setting [6]), 2810 nM; in the experiment with HLA-B*07:02 (setting [6]) it was 100 nM.
For STVGASGVY, the Kd with HLA-A*26:01 [2] (source organism: Orthohantavirus sinnombreense) is ≤ 1 nM.
Take IPGDILSII: the dissociation constant Kd was found to be 370 nM with HLA-B*54:01 (setting [7]); 27.5 nM with HLA-B*53:01 (setting [7]); 266 nM with HLA-B*35:01 (setting [7]); 0.459 nM with HLA-B*51:01 [1] (setting [7]); 43.5 nM with HLA-B*07:02 (setting [7]).
With ETNMITLLV, the results for the Kd with HLA-A*01:01 (setting [8]), in the experiment with HLA-A*26:01 [3] (setting [8]) and with HLA-A*68:02 (setting [8]) were 209 nM, 338 nM and 7.24 nM, respectively.
Turning to RPLMESELV, the dissociation constant Kd with HLA-B*54:01 (setting [9]) is ≥ 47500 nM; in the experiment with HLA-B*53:01 (setting [9]) it was ≥ 42200 nM; in the experiment with HLA-B*35:01 (setting [9]), ≥ 24400 nM; with HLA-B*51:01 [1] (setting [9]), 2370 nM; with HLA-B*07:02 (setting [9]) it was 8200 nM.
Taken in the same sequence, the figures for PPALNCYWPL were ≥ 37900 nM, ≥ 69900 nM, ≥ 57900 nM, 1190 nM and 12700 nM.
Take MVRILIGFLV: in the experiment with HLA-A*68:02 (setting [8]), the Kd turned out to be 401 nM.
Consider MTKEASREY, for which the dissociation constant (Kd) is 108 nM in the experiment with HLA-A*30:01 (setting [10]); 67.5 nM with HLA-A*30:02 (setting [10]); 3010 nM with HLA-A*01:01 (setting [10]); ≥ 56800 nM with HLA-A*32:01 (setting [10]); 616 nM with HLA-A*29:02 (setting [10]); 17.7 nM in the experiment with HLA-A*26:01 [3] (setting [10]).
QPFLQPQLPY: the dissociation constant (Kd) with HLA-B*54:01 (setting [11]) was ≥ 46600 nM; with HLA-B*53:01 (setting [11]), 4580 nM; with HLA-B*35:01 (setting [11]), 28.6 nM; with HLA-B*51:01 [1] (setting [11]), 14500 nM; in the experiment with HLA-B*07:02 (setting [11]), 950 nM.
The matching figures for QPQQLPQF: ≥ 87700 nM, ≥ 87700 nM, ≥ 87800 nM, ≥ 87300 nM and 1460 nM.
Turning to NNRYRFAFL, in the experiment with HLA-B*08:01 (setting [7]), the Kd is 31.1 nM.
With FPVQFFIVF, the dissociation constant Kd in the experiment with HLA-B*18:01 is ≥ 20000 nM.
Consider LPWLIFIQI, for which the Kd with HLA-B*51:01 [4] stood at 1690 nM.
For NNRVLFNNF, in the experiment with HLA-B*08:01 (setting [7]), the dissociation constant (Kd) is 773 nM.
As for EPLSPDTCLL, the dissociation constant Kd is ≥ 61300 nM with HLA-B*54:01 (setting [7]); 289 nM with HLA-B*53:01 (setting [7]); 281 nM with HLA-B*35:01 (setting [7]); ≥ 69600 nM with HLA-B*51:01 [1] (setting [7]); ≥ 59700 nM with HLA-B*07:02 (setting [7]).
As for EVEDYGFGV, the dissociation constant Kd in the experiment with HLA-A*68:02 (setting [12]) was determined as 7.04 nM.
On to MLKRARNRV, for which the Kd with HLA-B*08:01 (setting [13]) stood at 25 nM.
In the case of ILRKIFYSV, the Kd with HLA-B*08:01 (setting [7]) was found to be 0.102 nM.
The same measure, in the same setting: then CINVRRCAL, with 6.94 nM.
TSNHGVTATI: in the experiment with HLA-A*68:02 (source organism: Dengue virus 4 Thailand/0348/1991), the equilibrium dissociation constant (Kd) is 129 nM.
In the experiment with HLA-A*26:01 [2] (source organism: Escherichia coli F11), EAAGIAACL gave a Kd of 14.6 nM.
Consider MSTYGWNIV, for which, in the experiment with HLA-A*68:02 (source organism: Dengue virus 3 Martinique/1243/1999), the equilibrium dissociation constant (Kd) came to 39.4 nM.
For LINLTTIAY, the dissociation constant (Kd) was determined as 9390 nM in the experiment with HLA-A*30:01 (setting [5]); 1450 nM with HLA-A*30:02 (setting [5]); 576 nM in the experiment with HLA-A*01:01 (setting [5]); 8970 nM with HLA-A*32:01 (setting [5]); 345 nM with HLA-A*29:02 (setting [5]); 12200 nM with HLA-A*26:01 [3] (setting [5]).
In the experiment with HLA-A*26:01 [2] (source organism: Escherichia coli), DVLRQYVLM yielded a dissociation constant Kd of 2140 nM.
In the case of LLQMEDKAWL, in the experiment with HLA-B*08:01 (setting [12]), the Kd came out at 2010 nM.
LTASLVMLLV: the dissociation constant Kd with HLA-A*68:02 (source organism: Dengue virus 4 Dominica/814669/1981) worked out at 30.3 nM.
As to LTYQNKVVRV, the Kd with HLA-A*68:02 (setting [12]) was 27.9 nM.
As for TRKVRSNAA, the Kd in the experiment with HLA-B*08:01 (setting [12]) stood at 6.25 nM.
Turning to FRRLTSREVL, the Kd in the experiment with HLA-B*08:01 (setting [13]) stood at 104 nM.
